Where a chain is given by its changes, count along the chain named.
B1: NOV2603 (antibody, human IgG1, kappa, V domains shown)
VH: QVQLVQSGAEVKKPGASVKVSCKASGYTFTSYYMHWVRQAPGQGLEWMGIISPSGGSTSYAQKFQGRVTMTRDTSTSTVYMELSSLRSEDTAVYYCARDWEGGDPYGYYYAFDYWGQGTLVTVSS
VL: not shown
notes: Full human IgG1 (kappa) expressed in CHO cells
B2: NOV3212 (antibody, human IgG1, kappa, V domains shown)
VH: B1 VH with Y32L, Y33E, S52E
VL: not shown
notes: as for B1
B3: NOV3357 (antibody, human IgG1, kappa, V domains shown)
VH: EVQLLESGGGLVQPGGSLRLSCAASGFTFSPHAMSWVRQAPGKGLEWVSAISDSGGSTHYADSVKGRFTISRDNSKNTLYLQMNSLRAEDTAVYYCARDDDGWSGYDYWFDYWGQGTLVTVSS
VL: DIQMTQSPSSLSASVGDRVTITCRASQSISPYLNWYQQKPGKAPKLLIYAADSLQSGVPSRFSGSGSGTDFTLTISSLQPEDFATYYCQQSYKIPLTFGQGTKVEIKR
notes: as for B1
B4: NOV3540 (antibody, human IgG1, kappa, V domains shown)
VH: B3 VH with G102A
VL: B3 VL
notes: as for B1
B5: NOV3836 (antibody, human IgG1, kappa, V domains shown)
VH: QVQLVESGGGVVQPGRSLRLSCAASGFTFERYGMHWVRQAPGKGLEWVAGIWHEGSHKYYADSLRGRFTISRDNAKNTLDLQLNRLRAEDTSVYYCVRQTNRGRLDDAFDIWGQGTMVTVSS
VL: DIQMTQSPSSLSAAVGDRVTISCRASQTISSYLNWYQQKPGEAPKLLIYAASTLQSGVPSRFGGSGSGTDFTLTISSLQPEDSATYYCQQNYDTLWTFGQGTKVEIKR
B6: NOV3835 (antibody, human IgG1, kappa, V domains shown)
VH: B5 VH with E30D
VL: B5 VL
B7: NOV3834 (antibody, human IgG1, kappa, V domains shown)
VH: B5 VH with E30N, E54D
VL: B5 VL
notes: as for B1
B8: NOV3831 (antibody, human IgG1, lambda, V domains shown)
VH: EMQVLESGGGLVQPGGSLRLSCAASGFTFNNYAMSWVRQVPGKGLEWVSSISGSGGSTYYADSVKGQFTISRDNSKNTLYLQMNSLRAEDTAVYYCAKSSILSGGHARVYGIDVWGQGTTVTVSS
VL: QSALTQPPSVSVAPGQTARITCGGNNIGSQSVHWYQQKPGQAPILVVYDDTDRPSGIPARFSGSSSGSTATLTIGRVEAGDEADYYCQVWDSSSDHVVFGGGTKLTVLS
notes: Full human IgG1 (lambda) expressed in CHO cells
B9: NOV3832 (antibody, human IgG1, lambda, V domains shown)
VH: B8 VH with N30D
VL: B8 VL
notes: as for B8
B10: NOV3833 (antibody, human IgG1, lambda, V domains shown)
VH: B8 VH with N30H
VL: B8 VL
notes: as for B8

These binders were tested against HBsAg of HBV genotype D, serotype ayw (Hepatitis B virus) (assay: cell-based or functional assay).
For B1, the “Virus neutralization EC50” value was 140 pM.
For B2, the “Virus neutralization EC50” value was 110 pM.
For B3, the “Virus neutralization EC50” value was 56 pM.
In the case of B4, the “Virus neutralization EC50” value is reported as 85 pM.
With B5 the “Virus neutralization EC50” value was 17 pM.
For B6, the “Virus neutralization EC50” value was 720 pM.
For B7, the “Virus neutralization EC50” value was 240 pM.
For B8, the “Virus neutralization EC50” value was 26 pM.
For B9, the “Virus neutralization EC50” value was 260 pM.
With B10 the “Virus neutralization EC50” value was 270 pM.

These binders were tested against T1, HBsAg of HBV genotype A (AY934772) (Hepatitis B virus) (assay: sandwich ELISA, captured HBsAg from culture supernatant).
T1 construct: captured from supernatant by horse polyclonal anti-HBsAg
Protocol: (§1) The binding of anti-HBsAg antibodies to the 4 major genotypes (A-D) of HBV were analyzed by sandwich ELISA.
B1 showed an IC50 of 2300 pM.
In the case of B2, the IC50 is reported as 230 pM.
For B3, the IC50 was 30 pM.
In the case of B4, the IC50 is reported as 100 pM.
B7 showed an IC50 of 2000 pM.
Binder B8 has an IC50 of 690 pM.
B9 gave an IC50 of 50 pM.
Binder B10 has an IC50 of 560 pM.

What follows are binders tested against HBsAg of HBV genotype B (AF 121245) (Hepatitis B virus) in the same assay as above.
Protocol: as §1
B1 showed an IC50 of 1500 pM.
B2 was tested, and the IC50 was 45 pM.
For B3, the IC50 was 17 pM.
Work on B4 yielded an IC50 of 59 pM.
For B7, the IC50 was 1200 pM.
With B8 the IC50 was 15 pM.
B9 gave an IC50 of 20 pM.
Binder B10 has an IC50 of 120 pM.

These binders were tested against HBsAg of HBV genotype C (DQ087960) (Hepatitis B virus) in the same assay as above.
Protocol: as §1
B1 showed an IC50 of 3600 pM.
Work on B2 yielded an IC50 of 68 pM.
B3 gave an IC50 of 16 pM.
B4 gave an IC50 of 100 pM.
Work on B7 yielded an IC50 of 16000 pM.
In the case of B8, the IC50 is reported as 31 pM.
Binder B9 has an IC50 of 15 pM.
B10 showed an IC50 of 120 pM.

Each binder was assayed against T2, HBsAg AD serotype (Hepatitis B virus) (assay: SPR epitope binning; competitor (1st, saturating Ab): HBC34).
T2 construct: also called HBsAg serotype AD
Protocol: (§2) Epitope binning of anti-HBsAg antibodies with the two major serotypes of HBsAg, AY and AD, was performed utilizing surface plasmon resonance (SPR) technology. […] Each pair of antibodies was tested for blocking one another's binding to their epitope on the antigen by subsequently applying one antibody as first (saturating) followed by the other as second (competing) antibody and vice versa. Saturating antibodies were applied at 500 nM for 120s. Competing antibodies utilized the same conditions but were supplemented with the first antibody at 500 nM to maintain saturation. Binding signals were corrected by subtracting the reference cell signal. Specific binding of the competing antibody in presence of the saturating antibody was calculated by subtracting a saturating antibody plus buffer reference signal. All signals were normalized to 100 RU of immobilized ligand. The specific binding signal obtained from the application as competing antibody was expressed as percentage of the binding signal obtained from the application of the same antibody as saturating (first) antibody, the signal of which was regarded 100% binding.
For B4, the “binding of second antibody” value was 111 % of its binding as first antibody.
In the case of B9, the “binding of second antibody” value is reported as 176 % of its binding as first antibody.

The binders below were run against T3, HBsAg AY serotype (Hepatitis B virus) in the same assay as above.
T3 construct: also called HBsAg serotype AY
Protocol: as §2
In the case of B4, the “binding of second antibody” value is reported as 102 % of its binding as first antibody.
With B9 the “binding of second antibody” value was 113 % of its binding as first antibody.

These binders were tested against T2, HBsAg AD serotype (assay: SPR epitope binning; competitor (1st, saturating Ab): CR8087).
Protocol: as §2
B4 was tested, and the “binding of second antibody” value was 254 % of its binding as first antibody.
B9 was tested, and the “binding of second antibody” value was 223 % of its binding as first antibody.

These binders were tested against T3, HBsAg AY serotype in the same assay as above.
Protocol: as §2
For B4, the “binding of second antibody” value was 118 % of its binding as first antibody.
For B9, the “binding of second antibody” value was 117 % of its binding as first antibody.

What follows are binders tested against HBsAg clinical mutation G145R (Hepatitis B virus) (assay: sandwich ELISA, captured mutant HBsAg from culture supernatant;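 further: Anti-HBsAg antibodies tested for binding to mutant HBsAg secreted by stably transfected cell lines, supernatant incubated 1 h on antibody-coated plates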).
Protocol: (§3) The binding of anti-HBsAg antibodies to 4 well characterized vaccine and/or HBsAg clinical mutations of HBsAg (G145R, D144A, T126S, M133L) were analyzed by sandwich ELISA. […] Supernatant collected from HBsAg cell-culture derived clinical mutation stables (G145R, D144A, T126S, M133L) was allowed to bind antibody coated plates for 1 hour.
For B1, the IC50 was 330 pM.
B2 was tested, and the IC50 was 33 pM.
With B3 the IC50 was 5500 pM.
B4 gave an IC50 of 250 pM.
B8 gave an IC50 greater than 67000 pM.
B9 gave an IC50 greater than 67000 pM.
B10 showed an IC50 greater than 67000 pM.

The binders below were run against HBsAg clinical mutation D144A (Hepatitis B virus) in the same assay as above.
Protocol: as §3
Binder B1 has an IC50 of 1340 pM.
B2 was tested, and the IC50 was 79 pM.
For B3, the IC50 was 2100 pM.
B4 gave an IC50 of 160 pM.
Work on B8 yielded an IC50 of 3600 pM.
For B9, the IC50 was 990 pM.
B10 showed an IC50 of 2800 pM.

These binders were tested against HBsAg clinical mutation T126S (Hepatitis B virus) in the same assay as above.
Protocol: as §3
Work on B1 yielded an IC50 of 60 pM.
Binder B2 has an IC50 of 12 pM.
B3 gave an IC50 of 220 pM.
For B4, the IC50 was 63 pM.
B7 was tested, and the IC50 was 7400 pM.
With B8 the IC50 was 9.3 pM.
Work on B9 yielded an IC50 of 34 pM.
B10 showed an IC50 of 25 pM.

What follows are binders tested against HBsAg clinical mutation M133L (Hepatitis B virus) in the same assay as above.
Protocol: as §3
Work on B1 yielded an IC50 of 72 pM.
In the case of B2, the IC50 is reported as 12 pM.
With B3 the IC50 was 670 pM.
Work on B4 yielded an IC50 of 91 pM.
In the case of B7, the IC50 is reported as 9200 pM.
B8 showed an IC50 of 5.8 pM.
B9 showed an IC50 of 34 pM.
Binder B10 has an IC50 of 36 pM.

The binders below were run against T2, HBsAg AD serotype (assay: SPR Biacore T200, HBsAg particles immobilized, antibody as analyte, 1:1 fit;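 further: Anti-HBsAg antibodies assessed for binding against both major HBsAg serotypes, AY and AD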).
Protocol: (§4) Binding affinity interaction (KD) of the anti-HBsAg antibodies with the two major serotypes of HBsAg, AY and AD, was determined utilizing surface plasma resonance (SPR) technology.
In the case of B1, the Kd is reported as 15500 pM.
B2 was tested, and the Kd was 1100 pM.
For B3, the Kd was 180 pM.
B4 gave a Kd of 390 pM.
B7 was tested, and the Kd was 40000 pM.
For B8, the Kd was 670 pM.
B9 showed a Kd of 220 pM.
For B10, the Kd was 330 pM.

What follows are binders tested against T3, HBsAg AY serotype in the same assay as above.
Protocol: as §4
B1 was tested, and the Kd was 3100 pM.
B2 gave a Kd of 600 pM.
B3 showed a Kd of 110 pM.
Work on B4 yielded a Kd of 250 pM.
In the case of B7, the Kd is reported as 5300 pM.
For B8, the Kd was 590 pM.
Work on B9 yielded a Kd of 400 pM.
Binder B10 has a Kd of 260 pM.

These binders were tested against HBsAg clinical mutation T126S (Hepatitis B virus) (assay: sandwich ELISA, mutant HBsAg from cell supernatant captured on horse polyclonal anti-HBsAg, antibody titrated, absorbance 450 nm).
B1 was tested, and the “EC50 (read off the curve)” value was roughly 60 pM.

Each binder was assayed against HBsAg clinical mutation M133L (Hepatitis B virus) in the same assay as above.
With B1 the “EC50 (read off the curve)” value was roughly 70 pM.

What follows are binders tested against HBsAg clinical mutation D144A (Hepatitis B virus) in the same assay as above.
With B2 the “EC50 (read off the curve)” value was roughly 100 pM.

Molecular target: HBsAg clinical mutation T126S (Hepatitis B virus)
Experiment: as above
Remark: another data set of the same source
B2 was tested, and the “EC50 (read off the curve)” value was roughly 20 pM.

Molecular target: HBsAg clinical mutation T126S (Hepatitis B virus)
Experiment: as above
Remark: another data set of the same source
With B3 the “EC50 (read off the curve)” value was roughly 100 pM.

Molecular target: HBsAg clinical mutation M133L (Hepatitis B virus)
Experiment: as above
Remark: another data set of the same source
With B3 the “EC50 (read off the curve)” value was roughly 100 pM.

The binders below were run against HBsAg clinical mutation G145R (Hepatitis B virus) in the same assay as above.
With B4 the “EC50 (read off the curve)” value was roughly 300 pM.

Molecular target: HBsAg clinical mutation D144A (Hepatitis B virus)
Experiment: as above
Remark: another data set of the same source
With B4 the “EC50 (read off the curve)” value was roughly 200 pM.

Molecular target: HBsAg clinical mutation T126S (Hepatitis B virus)
Experiment: as above
Remark: another data set of the same source
With B4 the “EC50 (read off the curve)” value was roughly 80 pM.

Molecular target: HBsAg clinical mutation M133L (Hepatitis B virus)
Experiment: as above
Remark: another data set of the same source
B4 was tested, and the “EC50 (read off the curve)” value was roughly 80 pM.

Molecular target: HBsAg clinical mutation T126S (Hepatitis B virus)
Experiment: as above
Remark: another data set of the same source
With B8 the “EC50 (read off the curve)” value was roughly 20 pM.

Molecular target: HBsAg clinical mutation M133L (Hepatitis B virus)
Experiment: as above
Remark: another data set of the same source
B8 was tested, and the “EC50 (read off the curve)” value was roughly 20 pM.

Molecular target: HBsAg clinical mutation T126S (Hepatitis B virus)
Experiment: as above
Remark: another data set of the same source
With B9 the “EC50 (read off the curve)” value was roughly 50 pM.

Molecular target: HBsAg clinical mutation M133L (Hepatitis B virus)
Experiment: as above
Remark: another data set of the same source
With B9 the “EC50 (read off the curve)” value was roughly 50 pM.

Molecular target: HBsAg clinical mutation T126S (Hepatitis B virus)
Experiment: as above
Remark: another data set of the same source
B10 was tested, and the “EC50 (read off the curve)” value was roughly 40 pM.

Molecular target: HBsAg clinical mutation M133L (Hepatitis B virus)
Experiment: as above
Remark: another data set of the same source
In the case of B10, the “EC50 (read off the curve)” value is reported as roughly 50 pM.

Source: patent publication US20240317840A1 (Novartis, published 2024)
